Measurements as given in US20250134019A1, “TRIKETONE DIOXYGENASE VARIANTS FOR HERBICIDE TOLERANCE” (Monsanto Technology LLC, priority 2022, published 2025).

Columns and labels:
[1] = Enzyme activity (Kcat/Km) for hydroxylation of mesotrione at room temperature; assay type: biochemical; conditions: Round 2 high-throughput screens
Description: The enzyme activity was expressed as Kcat/Km, M-1 sec-1. […] The enzyme activity was measured at room temperature for the hydroxylation of mesotrione, and was defined as Kcat/Km, M-1 sec-1 (specificity constant). Of these variants, four were tested in soybean plants. […] TDO activity was measured by the second hydroxylation of mesotrione. For routine activity measurements of TDO and determining the kinetic properties of the second hydroxylation, the continuous change in […], which is specific to the second hydroxylation and subsequent non-enzymatic water removal (i.e. the conversion of hydroxy-mesotrione to oxy-mesotrione), was monitored. […] The reaction proceeded until the maximum […] was obtained (usually 20-120 minutes depending upon the concentration of mesotrione) and the linear portion of the curve was determined by visual inspection. […] The reaction mixtures were analyzed by HPLC and mass spectrophotometry. By product conversation followed by peak integration on HPLC, a linear plot was obtained and the extinction co-efficient delta between the substrate (mesotrione) and the second product (oxy-mesotrione) was obtained according to the equation […]=(εp-εs)*bΔp where […] is the change of absorbance at 330 nm and b is the light path.

[2] = tested on: transgenic soybean plants; test: Response of R0 soybean plants transformed with Round 2 TDO variants to mesotrione; assay type: in vivo; conditions: R0 transgenic soybean sprayed with mesotrione
From the text: The next set of experiments was focused on determining if the balance between improved enzyme stability could outweigh a reduction in activity observed at optimal temperatures in soybean plants. […] To test this hypothesis, the eight variants from Round 2 biochemical analysis described in the preceding paragraph were transformed into soybean through Agrobacterium-mediated transformation, along with three controls. One of the controls (TDO_9) was a variant from the high-throughput screens that had poor activity. Two other controls were the D08 variant and the Os.TDO. R0 transgenic soybean plants were sprayed with the mesotrione herbicide to screen for herbicide tolerance. […] These included the Os.TDO control, the D08 variant and one Round 2 variant. The plants were scored for percent injury as described in the previous examples.

B1: TDO_9: Os.TDO variant, SEQ ID NO:44, F199L-K279R relative to D08; control with poor activity (protein)
chain: MADESWRAPALVQELAAKGVEEPPSRYLLREQDRPDVKLVAAELPEPIPVVDLGRLDGAEEATKLRVALQNWGFFLLTNHGIEASLMDDVMNLSREFFNQPIERKQKFSNLIDGKHFQIEGYGTDRVVTQDQVLDWSDRLHLRVEPKEEQDLAFWPDHPESFRDVLHKYASGCKRIRDDIIQAMAKLLELDEDYFLDRLNEAPTFARFNYYPPCPRPDLVFGIRPHSDGGLLTILLVDKDVGGLQVQRDGKWSNVPATPHTLLINLGDTMEVMSNGIFRSPVHRVVTNAEKERISLAMLYSVNDEKDIEPAAGLLDENRPARYRKVSVEEFRAGIFGKFSRGERYIDSLRI
modifications: TDO variant sequence
activity in high-throughput screens [1]: poor activity | R0 % Injury [2]: 36%
